Experiments:
[1] = target: T1, apolipoprotein A-I (mouse), Q00623; experiment: peptide on Dynabeads, 5% mouse plasma, LC-MS/MS
T1 chain: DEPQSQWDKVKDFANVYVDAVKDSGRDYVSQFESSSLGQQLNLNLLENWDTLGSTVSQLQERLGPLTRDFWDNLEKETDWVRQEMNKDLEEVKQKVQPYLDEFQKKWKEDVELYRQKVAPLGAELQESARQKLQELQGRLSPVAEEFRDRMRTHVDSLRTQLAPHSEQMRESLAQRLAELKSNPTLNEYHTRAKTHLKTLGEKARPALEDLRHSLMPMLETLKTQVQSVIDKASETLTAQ

[2] = target: T2, apolipoprotein A-IV (mouse), P06728; experiment: peptide on Dynabeads, 5% mouse plasma, LC-MS/MS
T2 chain: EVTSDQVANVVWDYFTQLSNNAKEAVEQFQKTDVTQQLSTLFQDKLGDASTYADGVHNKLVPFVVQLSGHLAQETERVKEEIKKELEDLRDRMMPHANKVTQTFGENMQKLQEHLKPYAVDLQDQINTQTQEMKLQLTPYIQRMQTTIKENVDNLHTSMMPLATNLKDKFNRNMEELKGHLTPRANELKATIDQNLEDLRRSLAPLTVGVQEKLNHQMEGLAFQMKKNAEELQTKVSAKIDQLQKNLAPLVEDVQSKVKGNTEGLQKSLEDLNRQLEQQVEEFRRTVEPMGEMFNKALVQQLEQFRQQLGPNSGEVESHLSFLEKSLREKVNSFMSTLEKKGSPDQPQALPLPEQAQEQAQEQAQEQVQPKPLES

[3] = target: T3, apolipoprotein C-I (mouse), P34928; experiment: peptide on Dynabeads, 5% mouse plasma, LC-MS/MS
T3 chain: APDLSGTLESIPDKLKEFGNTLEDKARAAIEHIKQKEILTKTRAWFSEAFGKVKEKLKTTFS

[4] = target: serum albumin (mouse), P07724; experiment: peptide on Dynabeads, 5% mouse plasma, LC-MS/MS
Chain of serum albumin (mouse), P07724 (P07724 25-608 limits assumed): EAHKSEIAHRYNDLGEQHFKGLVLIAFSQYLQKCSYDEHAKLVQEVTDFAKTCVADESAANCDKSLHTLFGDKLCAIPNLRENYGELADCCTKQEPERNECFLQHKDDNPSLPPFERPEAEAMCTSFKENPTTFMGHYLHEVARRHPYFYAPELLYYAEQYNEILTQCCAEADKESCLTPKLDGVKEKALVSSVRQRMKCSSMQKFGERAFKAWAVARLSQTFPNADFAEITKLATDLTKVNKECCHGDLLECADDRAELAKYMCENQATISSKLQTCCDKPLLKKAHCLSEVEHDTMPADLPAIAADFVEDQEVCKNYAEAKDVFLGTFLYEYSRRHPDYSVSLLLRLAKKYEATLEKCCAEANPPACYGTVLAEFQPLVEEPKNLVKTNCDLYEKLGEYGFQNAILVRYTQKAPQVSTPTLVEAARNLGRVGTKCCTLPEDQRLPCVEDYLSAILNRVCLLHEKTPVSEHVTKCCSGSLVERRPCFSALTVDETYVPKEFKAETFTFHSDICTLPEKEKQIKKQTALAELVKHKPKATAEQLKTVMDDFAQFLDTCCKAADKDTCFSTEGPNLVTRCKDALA

[5] = target: T1, apolipoprotein A-I (mouse), Q00623; experiment: ratio of MS intensity on L-form beads to that on D-form (C10-KR8d) beads
[6] = target: T2, apolipoprotein A-IV (mouse), P06728; experiment: as above
[7] = target: T3, apolipoprotein C-I (mouse), P34928; experiment: as above
[8] = target: serum albumin (mouse), P07724; experiment: as above

intensity (mass spectrometry) [1]: 4.29e+09
intensity (mass spectrometry) [2]: 3.21e+08
intensity (mass spectrometry) [3]: 4.35e+08
intensity (mass spectrometry) [4]: 3.72e+10
L/D Ratio [5]: 3.54
L/D Ratio [6]: 2.89
L/D Ratio [7]: 2.08
L/D Ratio [8]: 2.28
Binder: CKRIWQRIK (modifications not checked)
